# From US10538583 (dated 2020)
# Residue numbers refer to the chain shown, from its start.
# B1: mAb12 (antibody, V domains shown)
# VH: QLVESGGGLVQPGGSLRLSCAASGFTFSTYSMRWVRQVPGKGLEWVSSIHTDAGGTAYRDSVKGRFTISRDNAKNTLYLQMNSLRPEDTAIYYCVIAGYSDWGQGTLVTVSS
# VL: DIVMTQSPLSLSVTPGEPASISCKTSQGLVHSDGKTYFYWFLQKPGQSPQQLIYQVSNRASGVPDRFTGSGSGTDFTLKISRVKAEDVGVYYCAHGTYYPHTFGQGTRLEIK
# B2: 5E5VH5VH12_VLWT IgG1 (antibody, V domains shown)
# VH: QLQLVESGGGLVQPGGSLRLSCAASGFTFGTYSMRWVRQVPRKALEWVSSIHTDGGGTAYRDSVKGRFTISRDNAKNTLYLQMNNLKPEDTAIYYCVIHGYSDWGQGTQVTVSS
# VL: ATMLTQSPGSLSVVPGESASISCKTSQGLVHSDGKTYFYWFLQKPGQSPQQLIYQVSNRASGVPDRFTGSGSGTDFTLKISGVKAEDAGVYYCAQGTYYPHTFGSGTRLEIK
# B3: 5E5VHWT_VL8 scFv-Fc (antibody, V domains shown)
# VH: B2 VH with H52S, H99A
# VL: B2 VL with Q95H
# B4: 5E5WT (5E5) IgG1 (antibody, V domains shown)
# VH: B2 VH with H52S, H99A
# VL: B2 VL
# B5: 5E5VH5_VL8 IgG1 (antibody, V domains shown)
# VH: B2 VH with H99A
# VL: B2 VL with Q95H
# B6: 5E5VH5_VLWT IgG1 (antibody, V domains shown)
# VH: B2 VH with H99A
# VL: B2 VL
# B7: 5E5VH5VH12_VL8 IgG1 (antibody, V domains shown)
# VH: B2 VH
# VL: B2 VL with Q95H
# B8: 5E5VH12_VL8 IgG1 (antibody, V domains shown)
# VH: B2 VH with H52S
# VL: B2 VL with Q95H
# B9: 5E5VH12_VLWT IgG1 (antibody, V domains shown)
# VH: B2 VH with H52S
# VL: B2 VL
# B10: 5E5VHWT_VL8 IgG1 (antibody, V domains shown)
# VH: B2 VH with H52S, H99A
# VL: B2 VL with Q95H
# B11: 5E5VH12_VLWT scFv-Fc (antibody, V domains shown)
# VH: B2 VH with H52S
# VL: B2 VL
# B12: 5E5WT scFv-Fc (antibody, V domains shown)
# VH: B2 VH with H52S, H99A
# VL: B2 VL
# B13: 5E5VH5_VLWT scFv-Fc (antibody, V domains shown)
# VH: B2 VH with H99A
# VL: B2 VL
# What was measured:
# human ApoC3 [1] = biological target: human ApoC3 (human); assay: SPR pH 5.5
# Chain of human ApoC3 (human) (chain, as listed by the source): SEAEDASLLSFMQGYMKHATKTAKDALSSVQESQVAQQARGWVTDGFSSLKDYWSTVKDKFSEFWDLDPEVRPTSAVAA
# human ApoC3 [2] = biological target: human ApoC3 (human); assay: SPR pH 7.4
# human ApoC3 [3] = biological target: human ApoC3 (human); assay: SPR pH 5.5, antibody immobilized
# human ApoC3 [4] = biological target: human ApoC3 (human); assay: SPR pH 7.4, antibody immobilized
# human ApoC3 [5] = biological target: human ApoC3 (human); assay: SPR pH 7.4; remark: listed apart in the source
# human ApoC3 [6] = biological target: human ApoC3 (human); assay: SPR pH 5.5; remark: listed apart in the source
# human ApoC3 [7] = biological target: human ApoC3 (human); assay: SPR pH 7.4; remark: listed apart in the source
# human ApoC3 [8] = biological target: human ApoC3 (human); assay: SPR pH 5.5; remark: listed apart in the source
# human ApoC3 [9] = biological target: human ApoC3 (human); assay: SPR pH 5.5; remark: listed apart in the source
Binder,Kd (human ApoC3 [5]) [nM],Kd (human ApoC3 [6]) [nM],Kd (human ApoC3 [7]) [nM],Kd (human ApoC3 [8]) [nM],other results
B1,,,,,Kd (human ApoC3 [1]): 0.139 nM; Kd (human ApoC3 [2]): 0.0655 nM; Kd (human ApoC3 [3]): 343 nM; Kd (human ApoC3 [4]): 321 nM
B2,4.96,20.2,,,
B3,,,0.58,4.29,
B4,0.0512,0.0499,,,Kd (human ApoC3 [1]): 0.0499 nM; Kd (human ApoC3 [2]): 0.0512 nM
B5,0.975,11.4,,,Kd (human ApoC3 [1]): 11.4 nM; Kd (human ApoC3 [2]): 0.975 nM; Kd (human ApoC3 [4]): 298 nM
B6,0.211,1.31,,,
B7,22.4,,,,binding result (human ApoC3 [9]): no binding
B8,0.609,8.79,,,
B9,0.0351,1.02,,,
B10,0.0363,0.0556,,,
B11,,,0.51,16,
B12,,,0.02,0.06,
B13,,,0.59,10.9,
